Results as given in patent US20250108114A1.

Key:
Assay in all cases: cell-based or functional assay
[1] = molecular target: CD19 on GFP/Luc+ Raji cells (human) (UniProt P15391)
[2] = molecular target: BCMA on H929 myeloma cells (human) (UniProt Q02223)
[3] = molecular target: truncated BCMA (amino acid 1 to 98) on SKOV3 cells (human) (UniProt Q02223)
[4] = molecular target: truncated CD19 (amino acid 1 to 342) on SKOV3 cells (human) (UniProt P15391)
Chain of truncated CD19 (amino acid 1 to 342) on SKOV3 cells (human) (P15391 20-342 limits assumed, form in doubt): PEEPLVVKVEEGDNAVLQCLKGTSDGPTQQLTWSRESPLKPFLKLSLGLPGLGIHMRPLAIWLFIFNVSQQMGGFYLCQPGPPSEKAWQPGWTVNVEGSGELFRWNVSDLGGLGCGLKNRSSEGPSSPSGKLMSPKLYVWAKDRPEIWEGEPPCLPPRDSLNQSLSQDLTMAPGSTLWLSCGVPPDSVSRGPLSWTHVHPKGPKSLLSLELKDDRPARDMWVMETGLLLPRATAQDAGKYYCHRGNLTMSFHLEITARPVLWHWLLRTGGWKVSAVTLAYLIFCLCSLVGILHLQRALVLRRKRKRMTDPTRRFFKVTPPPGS

Chain of BCMA on H929 myeloma cells (human) (Q02223 whole entry, the tested form may be a part): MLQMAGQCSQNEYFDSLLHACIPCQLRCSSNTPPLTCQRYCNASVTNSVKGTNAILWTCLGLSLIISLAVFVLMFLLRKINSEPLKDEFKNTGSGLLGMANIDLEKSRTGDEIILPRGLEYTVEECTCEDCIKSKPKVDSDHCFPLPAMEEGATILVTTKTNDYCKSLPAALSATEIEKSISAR
Chain of CD19 on GFP/Luc+ Raji cells (human) (P15391 20-556): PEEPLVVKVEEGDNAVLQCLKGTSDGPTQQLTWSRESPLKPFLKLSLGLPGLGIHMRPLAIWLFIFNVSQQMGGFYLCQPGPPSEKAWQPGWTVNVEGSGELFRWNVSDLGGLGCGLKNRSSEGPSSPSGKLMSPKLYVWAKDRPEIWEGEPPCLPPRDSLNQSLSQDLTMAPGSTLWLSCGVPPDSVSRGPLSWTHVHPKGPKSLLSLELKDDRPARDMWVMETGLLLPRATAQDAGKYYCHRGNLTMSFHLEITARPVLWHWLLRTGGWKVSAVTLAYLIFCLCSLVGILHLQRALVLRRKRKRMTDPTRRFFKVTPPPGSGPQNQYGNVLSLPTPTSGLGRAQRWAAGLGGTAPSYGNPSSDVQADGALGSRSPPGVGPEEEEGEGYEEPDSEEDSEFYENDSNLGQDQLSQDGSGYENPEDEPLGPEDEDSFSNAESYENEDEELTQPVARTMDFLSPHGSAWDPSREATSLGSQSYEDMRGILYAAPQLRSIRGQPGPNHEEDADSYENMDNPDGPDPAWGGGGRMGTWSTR
Chain of truncated BCMA (amino acid 1 to 98) on SKOV3 cells (human) (Q02223 1-98 limits assumed): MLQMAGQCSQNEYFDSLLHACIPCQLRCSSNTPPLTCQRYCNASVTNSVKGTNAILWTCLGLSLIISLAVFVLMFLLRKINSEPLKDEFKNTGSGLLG

Substance | Specific cell lysis ratio (at E:T = 3:1), luciferase killing assay [1] | cytotoxicity, flow cytometry with counting beads, E:T 0.1:1, 24 hours [2] | cytotoxicity, flow cytometry with counting beads, E:T 0.3:1 and 1:1, 24 hours [2] | cytotoxicity, real-time cytotoxicity assay (xCELLigence), E:T 0.3:1 and 0.1:1, after 36 hours of co-culture [3] | cytotoxicity, real-time cytotoxicity assay (xCELLigence), E:T 0.1:1 (fold against Comparative Example 1C) [4]
anti-CD19-NKp30 chimeric antigen receptor of Example 1-4 (FMC63 scFv, hinge domain of IgG4, NKp30 without immunoglobulin-like domain), on CAR-T cells of Example 1-4C (from UniProt O14931 129-201; P30273 19-86) | 51% |  |  |  | 
anti-BCMA-NKp30 chimeric antigen receptor of Example 3 (J6M0 scFv, hinge domain of CD28, NKp30 without immunoglobulin-like domain), on CAR-T cells of Example 3C (from UniProt O14931 129-201; P30273 19-86) |  | 73.5% | 80 to 85% | 100% | 
anti-CD19-NKp30 chimeric antigen receptor of Example 1-5 (FMC63 scFv, (EAAAK)3 hinge, NKp30 without immunoglobulin-like domain), on CAR-T cells of Example 1-5C (from UniProt O14931 129-201; P30273 19-86) | 83.6% |  |  |  | > 3
anti-BCMA chimeric antigen receptor of Comparative Example 3 (J6M0 scFv, hinge domain of CD8, transmembrane domain of CD8, 4-1BB, signal transduction domain of CD3ζ), on CAR-T cells of Comparative Example 3C (from UniProt P01732 183-206; Q07011 214-255; P20963 52-164) |  | 74.8% |  |  | 
